According to patent US8512991B2, “Beta 1,4-galactosyltransferases with altered donor and acceptor specificities, compositions and methods of use” (The United States of America, as represented by the …, priority 2007, dated 2013):
Where a chain is given by its changes, count along the chain named. In names and notes the source's numbering stands. Where two headings read alike, the source gives them in different places.

B1: b4Gal-T1-M340H-Y285L: double mutant human beta 1,4-galactosyltransferase I, Tyr285Leu and Met340His, transfers GalNAc or modified galactose with magnesium (protein, UniProt P15291 1-398, looked up, variant M340H Y285L)
chain: MRLREPLLSGSAAMPGASLQRACRLLVAVCALHLGVTLVYYLAGRDLSRLPQLVGVSTPLQGGSNSAAAIGQSSGELRTGGARPPPPLGASSQPRPGGDSSPVVDSGPGPASNLTSVPVPHTTALSLPACPEESPLLVGPMLIEFNMPVDLELVAKQNPNVKMGGRYAPRDCVSPHKVAIIIPFRNRQEHLKYWLYYLHPVLQRQQLDYGIYVINQAGDTIFNRAKLLNVGFQEALKDYDYTCFVFSDVDLIPMNDHNAYRCFSQPRHISVAMDKFGFSLPYVQLFGGVSALSKQQFLTINGFPNNYWGWGGEDDDIFNRLVFRGMSISRPNAVVGRCRHIRHSRDKKNEPNPQRFDRIAHTKETMLSDGLNSLTYQVLDVQRYPLYTQITVDIGTPS
B2: b4Gal-T1-M340H: single mutant human beta4Gal-T1, Met340 to His, from which the double mutant was constructed (protein, UniProt P15291 1-398, looked up, variant M340H)
chain: B1 chain with L285Y
B3: b4Gal-T1 Y285L: single mutant human beta4Gal-T1, Tyr285 to Leu, from which the double mutant was constructed (protein, UniProt P15291 1-398, looked up, variant Y285L)
chain: B1 chain with H340M
B4: b4Gal-T1Y289L: single mutant beta4Gal-T1, Tyr289 to Leu (bovine numbering), enlarged binding pocket with GalNAc-T activity (protein, UniProt P08037 1-402, looked up, variant Y289L)
chain: MKFREPLLGGSAAMPGASLQRACRLLVAVCALHLGVTLVYYLAGRDLRRLPQLVGVHPPLQGSSHGAAAIGQPSGELRLRGVAPPPPLQNSSKPRSRAPSNLDAYSHPGPGPGPGSNLTSAPVPSTTTRSLTACPEESPLLVGPMLIEFNIPVDLKLVEQQNPKVKLGGRYTPMDCISPHKVAIIIPFRNRQEHLKYWLYYLHPILQRQQLDYGIYVINQAGESMFNRAKLLNVGFKEALKDYDYNCFVFSDVDLIPMNDHNTYRCFSQPRHISVAMDKFGFSLPYVQLFGGVSALSKQQFLSINGFPNNYWGWGGEDDDIYNRLAFRGMSVSRPNAVIGKCRMIRHSRDKKNEPNPQRFDRIAHTKETMLSDGLNSLTYMVLEVQRYPLYTKITVDIGTPS

Legend:
[1] = Gal-T and GalNAc-T enzyme assay, specific activities of the catalytic domain (FIG. 2); format: biochemical; settings: in the presence of magnesium; saturating substrates, 500 μM UDP-galactose or UDP-GalNAc, β-benzyl-GlcNAc 25 mM
Method: FIG. 2 is a graph showing specific activities of the catalytic domain of the human beta 4Gal-T1-M340H-Y285L. Reactions were performed under saturating conditions of all substrates. In these reactions the concentrations for the donors UDP-galactose or UDP-GalNAc was 500 μM and the acceptor β-benzyl-GlcNAc was at 25 mM.
The reactions were performed under saturating conditions of all substrates. […] This is in contrast to the wild type, which is not active (not able to transfer sugar) in the presence of magnesium.
Gal-T and GalNAc T enzyme assays are easily performed according to methods described in the art, for example US Published Application 20060084162. Protein concentrations are measured using the Bio-Rad protein assay kit, based on the method of Bradford and further verified on SDS gel. An in vitro assay procedure for the Gal-T1 has been reported previously (Ramakrishnan et al., J. Biol. Chem., 270, […] (2001)). The activities were measured using UDP-Gal or UDP-GalNAc as sugar nucleotide donors, and GlcNAc and Glc as the acceptor sugars. […] The column was washed successfully with 300, 400, and 500 µl of water, and the column flow-through was diluted with Biosafe scintillation fluid; radioactivity was measured with a Beckman counter. […]

[2] = Transfer of GalNAc or 2-keto-galactose to heptasaccharide tetrapeptide, MALDI mass spectra (FIG. 1); format: biochemical
Method: Major peaks are annotated with the carbohydrate structure shown in the symbols for monosaccharides, according to the nomenclature adopted by the consortium for functional glycomics, (on the world wide web at functionalglycomics.org/static/consortium/). GlcNAc (squares), mannose (spheres).
The experiments shown in FIG. 1 were performed with the double mutant, b4Gal-T1_M340H_Y285L, which was constructed from the single mutants, b4Gal-T1_M340H and b4Gal-T1_Y285L. The b4Gal-T1-M340H single mutant requires Mg2+ for the transfer reaction, while the b4Gal-T1 Y285L single mutant requires Mn2+ for the transfer reaction. In FIGS. 1, (A), (B) and (C) show the MALDI mass spectra of glycans after the transfer of GalNAc (shown in B) or 2-keto-galactose (shown in C) to the sugar acceptor, heptasaccharide tetrapeptide (A), Arg-[GlcNAcβ1,2-Manα-1,6-(GlcNAcβ1,2-Manα1,3)-Manβ1,4-GlcNAcβ1,4-GlcNAcβ]-Asn-Glu-Gly, by the double mutant enzyme, b4Gal-T1M340H_Y285L. In FIG. 1, major peaks are annotated with the carbohydrate structure shown in the symbols for monosaccharides, according to the nomenclature adopted by the consortium for functional glycomics (publicly available on the world wide web at functional glycomics.org/static/consortium/).

[3] = Ramakrishnan et al. 2002, 2004, cited from earlier work

activity (able to transfer sugar) of the catalytic domain [1]	Molecule	transfer of GalNAc or a modified sugar (2-keto-galactose) to the sugar acceptor ([2]; in the presence of Mg2+, acceptor heptasaccharide tetrapeptide)	metal ion required for the transfer reaction (GalNAc or a modified sugar) [2]	beta 4GalNAc-T activity compared with beta 4Gal-T activity ([3]; listed as beta 4Gal-T1-Y289L)	beta 4GalNAc-T activity compared with beta 4Gal-T activity ([3]; listed as beta4Gal-T1-Y289L)
is active	B1	transfer of GalNAc or a modified sugar			
	B2		requires Mg2+		
	B3		requires Mn2+		
	B4		require the presence of Mn2+	exhibits both beta 4Gal-T and beta 4GalNAc-T activities	as efficient as its beta-1,4-galactosyltransferase (beta 4Gal-T) activity
